Test results reported in patent US20230295335A1.

What was measured:
[1] = target: neonatal Fc receptor (FcRn), His-tagged (SinoBiological, cat. no. CT009-H08H-B) (UniProt P55899); assay: SPR kinetics assay at pH 6.0; His-tagged FcRn captured on anti-His chip, antibody 0-100 nM
[2] = target: neonatal Fc receptor (FcRn), His-tagged (SinoBiological, cat. no. CT009-H08H-B) (UniProt P55899); assay: SPR kinetics assay at pH 6.0; His-tagged FcRn captured on anti-His chip, antibody 0-100 nM; mean of three experiments

Sequence of neonatal Fc receptor (FcRn), His-tagged (SinoBiological, cat. no. CT009-H08H-B) (P55899 24-297 limits assumed, form in doubt): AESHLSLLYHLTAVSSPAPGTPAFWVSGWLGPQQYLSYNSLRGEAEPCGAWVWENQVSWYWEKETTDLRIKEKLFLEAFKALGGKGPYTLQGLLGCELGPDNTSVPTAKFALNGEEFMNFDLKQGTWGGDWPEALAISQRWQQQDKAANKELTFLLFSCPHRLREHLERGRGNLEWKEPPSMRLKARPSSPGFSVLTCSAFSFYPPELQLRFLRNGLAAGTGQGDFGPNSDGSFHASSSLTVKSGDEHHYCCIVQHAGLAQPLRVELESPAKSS

koff [1]: 0.0322 s⁻¹
kon [1]: 1.1e+06 M⁻¹ s⁻¹
Kd [2]: 29 nM
Substance: IgG1-b12 (antibody)
